Data: PMC12075709, “Acute regulation of murine adipose tissue lipolysis and insulin resistance by the TGFβ superfamily protein GDF3” (Nature Communications, 2025)

T1: SB-431542-resistant rat ALK5 S278T (Alk5-ST) (rat, UniProt P80204 30-501, S278T)
T1 sequence (looked up): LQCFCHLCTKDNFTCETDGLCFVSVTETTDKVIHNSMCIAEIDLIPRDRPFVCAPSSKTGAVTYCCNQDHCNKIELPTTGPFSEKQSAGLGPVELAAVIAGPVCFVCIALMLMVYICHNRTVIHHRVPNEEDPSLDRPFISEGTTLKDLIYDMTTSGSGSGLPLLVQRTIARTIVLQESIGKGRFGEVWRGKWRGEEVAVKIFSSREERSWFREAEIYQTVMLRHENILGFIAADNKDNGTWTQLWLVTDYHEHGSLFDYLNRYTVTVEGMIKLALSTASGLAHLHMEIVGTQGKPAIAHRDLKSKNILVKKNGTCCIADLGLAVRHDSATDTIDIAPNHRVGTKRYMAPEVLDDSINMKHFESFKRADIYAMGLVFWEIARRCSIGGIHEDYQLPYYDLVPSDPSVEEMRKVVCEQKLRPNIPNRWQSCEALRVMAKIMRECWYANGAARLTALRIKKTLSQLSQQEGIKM

T2: Fc-chimera of the human type II BMP receptor (rhBMPR2-Fc) (human, UniProt Q13873 27-150)
T2 construct: type II BMP receptor BMPR2, human, part fused to Fc; Probably the extracellular domain fused to human IgG1 Fc (surmised); also called rhBMPRII-Fc; BMPRII
T2 sequence (looked up): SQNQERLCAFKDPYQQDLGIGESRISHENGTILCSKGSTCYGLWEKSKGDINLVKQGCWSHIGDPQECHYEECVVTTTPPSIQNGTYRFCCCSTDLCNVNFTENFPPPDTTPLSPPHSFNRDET

T3: chimeric recombinant human ACVR2B-Fc (human, UniProt Q13705 19-137)
T3 construct: activin receptor type 2B (ACVR2B), human, part fused to Fc; Probably the extracellular domain fused to Fc (surmised); also called rhACVR2B-Fc; rhACVR2B
T3 sequence (looked up): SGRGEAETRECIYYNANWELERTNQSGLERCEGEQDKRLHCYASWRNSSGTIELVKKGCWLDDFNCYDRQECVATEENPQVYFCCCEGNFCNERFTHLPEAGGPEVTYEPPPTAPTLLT


Experiments:
[1] = molecular target: T1, SB-431542-resistant rat ALK5 S278T …; assay: cell-based or functional assay
[2] = molecular target: T2, Fc-chimera of the human type II BMP …; assay: ITC; Nano ITC Standard Volume; 250 ng/mL of rhBMPR2-Fc, rhBMP2, rmBMP4 or rhBMP9 titrated into 250 ng/mL of rmGDF3; 10 injections of 8 µL at 350 s intervals, 300 rpm; conditions: both partners purified
[3] = molecular target: T2, Fc-chimera of the human type II BMP …; assay: BLI; Gator Plus; capturing receptor (rhBMPR2-Fc) at 10 µg/mL on anti-human IgG Fc probes; GDF3 in solution (rhGDF3 50 nM; rmGDF3 25-100 nM); PBS, 1 mg/mL BSA, 0.1% Tween20, pH 7.4, 25 °C; conditions: both partners purified
[4] = molecular target: T2, Fc-chimera of the human type II BMP …; assay: SPR; Biacore T200; receptor-Fc captured on a Protein A sensor chip (~70 RU); rhGDF3 flowed over, two-fold dilutions 12.5 nM-0.391 nM; 20 mM HEPES pH 7.4, 350 mM NaCl, 3.4 mM EDTA, 0.05% P-20, 0.5 mg/ml BSA, 25 °C; 1:1 fit model with mass transport limitations; conditions: both partners purified
[5] = molecular target: T4, chimeric recombinant human ACVR2A-Fc (human, UniProt P27037 20-135); assay: as above; conditions: both partners purified
T4 construct: activin receptor type 2A (ACVR2A), human, part fused to Fc; Probably the extracellular domain fused to Fc (surmised); also called rhACVR2A-Fc; rhACVR2A
T4 sequence (P27037 20-135, change not shown): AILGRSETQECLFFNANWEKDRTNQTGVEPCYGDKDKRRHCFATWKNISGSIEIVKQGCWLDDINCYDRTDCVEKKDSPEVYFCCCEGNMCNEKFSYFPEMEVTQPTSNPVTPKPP

[6] = molecular target: T3, chimeric recombinant human ACVR2B-Fc; assay: as above; conditions: both partners purified

Row | Binder | SBE-luciferase (CAGA12) reporter activity in HEK-293 cells expressing Alk5-ST, rmGDF3 0, 250, 500 or 1000 ng/mL with SB-431542 [1] | Kd [2] | Kd [3] | koff [3] | kon [3] | Kd [4] | koff [4] | kon [4] | Kd [5] | koff [5] | kon [5] | Kd [6] | koff [6] | kon [6]
1 | recombinant mouse GDF3 (Growth Differentiation Factor 3) (ligand, UniProt Q07104 253-366, looked up, Growth Differentiation Factor 3, mouse, recombinant; also called rmGDF3; mouse rGDF3; source: CHO cell-derived) AAISVPKGFCRNFCHRHQLFINFQDLGWHKWVIAPKGFMANYCHGECPFSMTTYLNSSNYAFMQALMHMADPKVPKAVCVPTKLSPISMLYQDSDKNVILRHYEDMVVDECGCG | 70 fold | 811 nM | 13.1 nM | 0.00483 s⁻¹ | 370000 M⁻¹ s⁻¹ | – | – | – | – | – | – | – | – | –
2 | recombinant human GDF3 (Growth Differentiation Factor 3) (ligand, UniProt Q9NR23 251-364, looked up, Growth Differentiation Factor 3, human, recombinant; also called rhGDF3; human rGDF3) AAIPVPKLSCKNLCHRHQLFINFRDLGWHKWIIAPKGFMANYCHGECPFSLTISLNSSNYAFMQALMHAVDPEIPQAVCIPTKLSPISMLYQDNNDNVILRHYEDMVVDECGCG | – | – | – | – | – | 0.601 nM | 0.00149 s⁻¹ | 2.19e+06 M⁻¹ s⁻¹ | 1.26 nM | 0.000405 s⁻¹ | 1.21e+06 M⁻¹ s⁻¹ | 0.332 nM | 0.00038 s⁻¹ | 2.12e+06 M⁻¹ s⁻¹
